Laboratory results from patent US20240358847A1 (Merck Sharp & Dohme, published 2024).

Tests used:
[1] = target: T1, TROP2 on BxPC-3 and MDA-MB-231-KWL cells (human, UniProt P09758 27-323); experiment: on-cell ELISA, MDA-MB-231-KWL cells (TROP2 low); design: unit not given beside the values
T1 construct: whole, on cells
T1 sequence (looked up): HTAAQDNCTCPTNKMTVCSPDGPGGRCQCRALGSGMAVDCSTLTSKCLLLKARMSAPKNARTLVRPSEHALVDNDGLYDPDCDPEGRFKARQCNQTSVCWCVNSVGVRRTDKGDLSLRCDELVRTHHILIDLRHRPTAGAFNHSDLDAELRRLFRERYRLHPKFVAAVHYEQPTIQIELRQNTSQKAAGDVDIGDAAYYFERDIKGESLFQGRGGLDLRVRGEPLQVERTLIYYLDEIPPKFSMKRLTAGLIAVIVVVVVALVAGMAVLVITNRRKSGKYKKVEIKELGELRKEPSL
Method: (§1) Cells were plated in duplicate onto 96-well plates, and primary antibody was diluted in cell culture medium with a starting concentration of 30 μg/mL (200 nM) with a dilution factor of 1:5. […] Data was plotted and analyzed. EC50 ([…]) was measured along with area under the curve (AUC) for each cell line.

[2] = target: T1, TROP2 on BxPC-3 and MDA-MB-231-KWL cells; experiment: on-cell ELISA, BxPC-3 cells (TROP2 high); design: unit not given beside the values
Method: as §1

[3] = target: T1, TROP2 on BxPC-3 and MDA-MB-231-KWL cells; experiment: on-cell ELISA, BxPC-3 vs MDA-MB-231-KWL cells
Method: as §1

B1: Sacituzumab (antibody, human IgG1, kappa, V domains shown)
VH: QVQLQQSGSELKKPGASVKVSCKASGYTFTNYGMNWVKQAPGQGLKWMGWINTYTGEPTYTDDFKGRFAFSLDTSVSTAYLQISSLKADDTAVYFCARGGFGSSYWYFDVWGQGSLVTVSS
VL: DIQLTQSPSSLSASVGDRVSITCKASQDVSIAVAWYQQKPGKAPKLLIYSASYRYTGVPDRFSGSGSGTDFTLTISSLQPEDFAVYYCQQHYITPLTFGAGTKVEIKR
notes: also called mAb (parental)
**Q.** Which results are given for B1?
**A.** AUC (MDA-MB-231-KWL) [1]: 248; AUC (BxPC-3) [2]: 318; ΔAUC [3]: 70.1

B2: mAb_LC_Hm_F29G (antibody, human IgG1, kappa)
heavy: not shown
light: DIQLTQSPSSLSASVGDRVSITCKASQDVSIAVAWYQQKPGKAPKLLIYSASYRYTGVPDRFSGSGSGTDFTLTISSLQPEDFAVYYCQQHYITPLTFGAGTKVEIKRTVAAPSVFIFPPSDEQLKSGTASVVCLLNNFYPREAKVQWKVDNALQSGNSQESVTEQDSKDSTYSLSSTLTLSKADYEKHKVYACEVTHQGLSSPVTKSFNRGEC
**Q.** Which results are given for B2?
**A.** AUC (MDA-MB-231-KWL) [1]: 219; AUC (BxPC-3) [2]: 291; ΔAUC [3]: 71.9

B3: mAb_LC_Hm_F101E (antibody, human IgG1, kappa)
heavy: not shown
light: DIQLTQSPSSLSASVGDRVSITCKASQDVSIAVAWYQQKPGKAPKLLIYSASYRYTGVPDRFSGSGSGTDFTLTISSLQPEDFAVYYCQQHYITPLTFGAGTKVEIKRTVAAPSVFIFPPSDEQLKSGTASVVCLLNNFYPREAKVQWKVDNALQSGNSQESVTEQDSKDSTYSLSSTLTLSKADYEKHKVYACEVTHQGLSSPVTKSFNRGEC
**Q.** Which “AUC (MDA-MB-231-KWL)” value [1] does the source give for B3 here?
**A.** 158

**Q.** And the “AUC (BxPC-3)” value [2]?
**A.** 300

**Q.** And the ΔAUC [3]?
**A.** 142

B4: mAb_LC_Hm_F101T (antibody, human IgG1, kappa)
heavy: not shown
light: DIQLTQSPSSLSASVGDRVSITCKASQDVSIAVAWYQQKPGKAPKLLIYSASYRYTGVPDRFSGSGSGTDFTLTISSLQPEDFAVYYCQQHYITPLTFGAGTKVEIKRTVAAPSVFIFPPSDEQLKSGTASVVCLLNNFYPREAKVQWKVDNALQSGNSQESVTEQDSKDSTYSLSSTLTLSKADYEKHKVYACEVTHQGLSSPVTKSFNRGEC
**Q.** Which results are given for B4?
**A.** AUC (MDA-MB-231-KWL) [1]: 221; AUC (BxPC-3) [2]: 314; ΔAUC [3]: 93.1

B5: mAb_LC_Hm_F108Q (antibody, human IgG1, kappa)
heavy: not shown
light: DIQLTQSPSSLSASVGDRVSITCKASQDVSIAVAWYQQKPGKAPKLLIYSASYRYTGVPDRFSGSGSGTDFTLTISSLQPEDFAVYYCQQHYITPLTFGAGTKVEIKRTVAAPSVFIFPPSDEQLKSGTASVVCLLNNFYPREAKVQWKVDNALQSGNSQESVTEQDSKDSTYSLSSTLTLSKADYEKHKVYACEVTHQGLSSPVTKSFNRGEC
**Q.** B5 was tested. Which “AUC (MDA-MB-231-KWL)” value [1] did it give?
**A.** 230

**Q.** And the “AUC (BxPC-3)” value [2]?
**A.** 324

**Q.** And the ΔAUC [3]?
**A.** 94.9

B6: mAb_LC_Hm_F108S (antibody, human IgG1, kappa)
heavy: not shown
light: DIQLTQSPSSLSASVGDRVSITCKASQDVSIAVAWYQQKPGKAPKLLIYSASYRYTGVPDRFSGSGSGTDFTLTISSLQPEDFAVYYCQQHYITPLTFGAGTKVEIKRTVAAPSVFIFPPSDEQLKSGTASVVCLLNNFYPREAKVQWKVDNALQSGNSQESVTEQDSKDSTYSLSSTLTLSKADYEKHKVYACEVTHQGLSSPVTKSFNRGEC
**Q.** How did the “AUC (MDA-MB-231-KWL)” value [1] turn out when B6 was run?
**A.** 227

**Q.** And the “AUC (BxPC-3)” value [2]?
**A.** 303

**Q.** And the ΔAUC [3]?
**A.** 76.1

B7: mAb_LC_Hm_F108T (antibody, human IgG1, kappa)
heavy: not shown
light: DIQLTQSPSSLSASVGDRVSITCKASQDVSIAVAWYQQKPGKAPKLLIYSASYRYTGVPDRFSGSGSGTDFTLTISSLQPEDFAVYYCQQHYITPLTFGAGTKVEIKRTVAAPSVFIFPPSDEQLKSGTASVVCLLNNFYPREAKVQWKVDNALQSGNSQESVTEQDSKDSTYSLSSTLTLSKADYEKHKVYACEVTHQGLSSPVTKSFNRGEC
**Q.** For B7, which “AUC (MDA-MB-231-KWL)” value [1] is on record?
**A.** 207

**Q.** And the “AUC (BxPC-3)” value [2]?
**A.** 278

**Q.** And the ΔAUC [3]?
**A.** 71.4

B8: mAb_LC_Hm_G33I (antibody, human IgG1, kappa)
heavy: not shown
light: DIQLTQSPSSLSASVGDRVSITCKASQDVSIAVAWYQQKPGKAPKLLIYSASYRYTGVPDRFSGSGSGTDFTLTISSLQPEDFAVYYCQQHYITPLTFGAGTKVEIKRTVAAPSVFIFPPSDEQLKSGTASVVCLLNNFYPREAKVQWKVDNALQSGNSQESVTEQDSKDSTYSLSSTLTLSKADYEKHKVYACEVTHQGLSSPVTKSFNRGEC
**Q.** Which “AUC (MDA-MB-231-KWL)” value [1] does the source give for B8 here?
**A.** 129

**Q.** And the “AUC (BxPC-3)” value [2]?
**A.** 286

**Q.** And the ΔAUC [3]?
**A.** 156

B9: mAb_LC_Hm_G33P (antibody, human IgG1, kappa)
heavy: not shown
light: DIQLTQSPSSLSASVGDRVSITCKASQDVSIAVAWYQQKPGKAPKLLIYSASYRYTGVPDRFSGSGSGTDFTLTISSLQPEDFAVYYCQQHYITPLTFGAGTKVEIKRTVAAPSVFIFPPSDEQLKSGTASVVCLLNNFYPREAKVQWKVDNALQSGNSQESVTEQDSKDSTYSLSSTLTLSKADYEKHKVYACEVTHQGLSSPVTKSFNRGEC
**Q.** What does the source list for B9?
**A.** AUC (MDA-MB-231-KWL) [1]: 7.7; AUC (BxPC-3) [2]: 142; ΔAUC [3]: 134

B10: mAb_LC_Hm_G33S (antibody, human IgG1, kappa)
heavy: not shown
light: DIQLTQSPSSLSASVGDRVSITCKASQDVSIAVAWYQQKPGKAPKLLIYSASYRYTGVPDRFSGSGSGTDFTLTISSLQPEDFAVYYCQQHYITPLTFGAGTKVEIKRTVAAPSVFIFPPSDEQLKSGTASVVCLLNNFYPREAKVQWKVDNALQSGNSQESVTEQDSKDSTYSLSSTLTLSKADYEKHKVYACEVTHQGLSSPVTKSFNRGEC
**Q.** B10 was tested. Which “AUC (MDA-MB-231-KWL)” value [1] did it give?
**A.** 137

**Q.** What about the “AUC (BxPC-3)” value [2] of the same binder?
**A.** 281

**Q.** What about the ΔAUC [3] of the same binder?
**A.** 144

B11: mAb_LC_Hm_N31P (antibody, human IgG1, kappa)
heavy: not shown
light: DIQLTQSPSSLSASVGDRVSITCKASQDVSIAVAWYQQKPGKAPKLLIYSASYRYTGVPDRFSGSGSGTDFTLTISSLQPEDFAVYYCQQHYITPLTFGAGTKVEIKRTVAAPSVFIFPPSDEQLKSGTASVVCLLNNFYPREAKVQWKVDNALQSGNSQESVTEQDSKDSTYSLSSTLTLSKADYEKHKVYACEVTHQGLSSPVTKSFNRGEC
**Q.** Which results are given for B11?
**A.** AUC (MDA-MB-231-KWL) [1]: 173; AUC (BxPC-3) [2]: 289; ΔAUC [3]: 116

B12: mAb_LC_Hm_S104D (antibody, human IgG1, kappa)
heavy: not shown
light: DIQLTQSPSSLSASVGDRVSITCKASQDVSIAVAWYQQKPGKAPKLLIYSASYRYTGVPDRFSGSGSGTDFTLTISSLQPEDFAVYYCQQHYITPLTFGAGTKVEIKRTVAAPSVFIFPPSDEQLKSGTASVVCLLNNFYPREAKVQWKVDNALQSGNSQESVTEQDSKDSTYSLSSTLTLSKADYEKHKVYACEVTHQGLSSPVTKSFNRGEC
**Q.** Which results are given for B12?
**A.** AUC (BxPC-3) [2]: 285; ΔAUC [3]: 178

B13: mAb_LC_Hm_W106A (antibody, human IgG1, kappa)
heavy: not shown
light: DIQLTQSPSSLSASVGDRVSITCKASQDVSIAVAWYQQKPGKAPKLLIYSASYRYTGVPDRFSGSGSGTDFTLTISSLQPEDFAVYYCQQHYITPLTFGAGTKVEIKRTVAAPSVFIFPPSDEQLKSGTASVVCLLNNFYPREAKVQWKVDNALQSGNSQESVTEQDSKDSTYSLSSTLTLSKADYEKHKVYACEVTHQGLSSPVTKSFNRGEC
**Q.** With B13 as the binder, how does the “AUC (MDA-MB-231-KWL)” value [1] read?
**A.** 28.7

**Q.** What about the “AUC (BxPC-3)” value [2] of the same binder?
**A.** 215

**Q.** What about the ΔAUC [3] of the same binder?
**A.** 186

B14: mAb_Lm_H91Y_HC (antibody, human IgG1, kappa)
heavy: not shown
light: DIQLTQSPSSLSASVGDRVSITCKASQDVSIAVAWYQQKPGKAPKLLIYSASYRYTGVPDRFSGSGSGTDFTLTISSLQPEDFAVYYCQQYYITPLTFGAGTKVEIKRTVAAPSVFIFPPSDEQLKSGTASVVCLLNNFYPREAKVQWKVDNALQSGNSQESVTEQDSKDSTYSLSSTLTLSKADYEKHKVYACEVTHQGLSSPVTKSFNRGEC
**Q.** What does the source list for B14?
**A.** AUC (MDA-MB-231-KWL) [1]: 16.9; AUC (BxPC-3) [2]: 184

B15: mAb_Lm_V29R_HC (antibody, human IgG1, kappa)
heavy: not shown
light: DIQLTQSPSSLSASVGDRVSITCKASQDRSIAVAWYQQKPGKAPKLLIYSASYRYTGVPDRFSGSGSGTDFTLTISSLQPEDFAVYYCQQHYITPLTFGAGTKVEIKRTVAAPSVFIFPPSDEQLKSGTASVVCLLNNFYPREAKVQWKVDNALQSGNSQESVTEQDSKDSTYSLSSTLTLSKADYEKHKVYACEVTHQGLSSPVTKSFNRGEC
**Q.** Which results are given for B15?
**A.** AUC (BxPC-3) [2]: 291; ΔAUC [3]: 80.5

B16: mAb_Lm_Y53P_HC (antibody, human IgG1, kappa)
heavy: not shown
light: DIQLTQSPSSLSASVGDRVSITCKASQDVSIAVAWYQQKPGKAPKLLIYSASPRYTGVPDRFSGSGSGTDFTLTISSLQPEDFAVYYCQQHYITPLTFGAGTKVEIKRTVAAPSVFIFPPSDEQLKSGTASVVCLLNNFYPREAKVQWKVDNALQSGNSQESVTEQDSKDSTYSLSSTLTLSKADYEKHKVYACEVTHQGLSSPVTKSFNRGEC
notes: built from the Sacituzumab light chain with the named substitution
**Q.** For B16, which “AUC (BxPC-3)” value [2] is on record?
**A.** 304

**Q.** What about the ΔAUC [3] of the same binder?
**A.** 134

B17: mAb_Lm_Y53R_HC (antibody, human IgG1, kappa)
heavy: not shown
light: DIQLTQSPSSLSASVGDRVSITCKASQDVSIAVAWYQQKPGKAPKLLIYSASRRYTGVPDRFSGSGSGTDFTLTISSLQPEDFAVYYCQQHYITPLTFGAGTKVEIKRTVAAPSVFIFPPSDEQLKSGTASVVCLLNNFYPREAKVQWKVDNALQSGNSQESVTEQDSKDSTYSLSSTLTLSKADYEKHKVYACEVTHQGLSSPVTKSFNRGEC
**Q.** How did the “AUC (BxPC-3)” value [2] turn out when B17 was run?
**A.** 323

**Q.** And the ΔAUC [3]?
**A.** 143

B18: mAb_Lm_Y92N_HC (antibody, human IgG1, kappa)
heavy: not shown
light: DIQLTQSPSSLSASVGDRVSITCKASQDVSIAVAWYQQKPGKAPKLLIYSASYRYTGVPDRFSGSGSGTDFTLTISSLQPEDFAVYYCQQHNITPLTFGAGTKVEIKRTVAAPSVFIFPPSDEQLKSGTASVVCLLNNFYPREAKVQWKVDNALQSGNSQESVTEQDSKDSTYSLSSTLTLSKADYEKHKVYACEVTHQGLSSPVTKSFNRGEC
**Q.** What does the source list for B18?
**A.** AUC (BxPC-3) [2]: 226; ΔAUC [3]: 181
